In paper PMC4742278, “BS69/ZMYND11 C-Terminal Domains Bind and Inhibit EBNA2” (PLoS Pathogens, 2016):

Tests used:
[1] = target: BS69 MYND domain (BS69_(MYND), residues 516–562) (mouse); assay: ITC; peptide (~1 mM) titrated into BS69_(MYND) or BS69_(CC-MYND) (~0.1 mM) at 5°C; 20 mM Tris-HCl pH 7.5, 100 mM NaCl, 2 mM DTT; one-site fitting model
[2] = target: BS69/ZMYND11 coiled-coil-MYND tandem domains (BS69_(CC-MYND), residues 440–562) (mouse); assay: as above

B1: EBNA2_(435–445) peptide (NH2-…-CONH2) (peptide)
peptide: H-EAPILFPDDWY-NH2
Kd [1]: 93.4 µM | Kd [2]: 34.9 µM
